These results are taken from the RNAGym collection of RNA variant scans (doi:10.1093/nar/gkz1192).

The chains are these.
B1: CPEB3 Ribozyme (parent)
chain: UAACAGGGGGCCACAGCAGAAGCGUUCACGUCGCAGCCCCUGUCAGAUUCUGGUGAAUCUGCGAAUUCUGCUGUAUAUCUC

In the data set the parent is B1. Description: self-cleavage, relative activity (ratio to wild type); higher = more cleavage; in vitro, sequencing. An outline of the steps: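 After error-prone PCR and barcoding, CPEB3 ribozyme mutant libraries were transcribed with T7 RNA polymerase at 37°C for 5 hours, then given 15 min with DNase I before an EDTA stop, and they cleaved during both steps. Reverse transcription with template switching preceded Illumina sequencing. Relative activity divides a variant's cleaved/total read fraction by the unmutated ribozyme's. At least 5 reads were required per variant, and three batches were averaged.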
With U31A G36U, the self-cleavage stood at 0.1.

On to C23A C79A, for which the self-cleavage amounted to 0.26.

Take G10C U72A: the self-cleavage is 0.14.

For the variant A5U U58A, the self-cleavage came out at 0.53.

In the case of A20C U25A, the self-cleavage is 0.31.

As to A13U G73U, the self-cleavage came out at 1.24.

Regarding A64G A75G, the self-cleavage worked out at 0.71.

Turning to G33U U76C, the self-cleavage worked out at 0.32.

As for A15G U26C, the self-cleavage was found to be 0.41.

In the case of U48C A75C, the self-cleavage came out at 1.07.

With C11G G46U, the self-cleavage was 0.1.

In the case of C68A G70U, the self-cleavage worked out at 0.36.

For the variant A21G C62A, the self-cleavage turned out to be 0.2.

With A3G A65G, the self-cleavage was 0.55.

Regarding G63C, the self-cleavage is 0.92.

Turning to C23G A64U, the self-cleavage amounted to 0.26.

On to A47G G52A, for which the self-cleavage is 1.25.

Regarding U49A A75U, the self-cleavage came to 0.64.

On to G30C U67A, for which the self-cleavage was found to be 0.18.

Regarding U31A A57G, the self-cleavage is 0.53.

Consider G42U U69G, for which the self-cleavage is 0.14.

As to C32U U66C, the self-cleavage turned out to be 0.22.

As to A3G U72G, the self-cleavage was found to be 1.07.

In the case of G9U U78A, the self-cleavage was found to be 0.27.

Turning to A3G U80C, the self-cleavage was found to be 1.07.

As to A15U G30U, the self-cleavage was 0.15.

Consider G19A A65G, for which the self-cleavage is 0.51.

With A5C G8C, the self-cleavage turned out to be 0.36.

As for G42C A57G, the self-cleavage came out at 0.25.

Consider A28G U76A, for which the self-cleavage worked out at 0.61.

G30A U60C: the self-cleavage is 0.15.

Turning to C29U U41G, the self-cleavage was 0.26.

As for G46A A64G, the self-cleavage turned out to be 0.19.

As to C37G U72A, the self-cleavage is 0.92.

For the variant A47C U72A, the self-cleavage worked out at 0.26.

Regarding A45G C81U, the self-cleavage was 1.07.

C11U A18U: the self-cleavage is 0.24.

As to G8A A35U, the self-cleavage is 0.14.

As to A18G C44G, the self-cleavage is 0.16.

For the variant C23G U67C, the self-cleavage is 0.12.

Turning to G36A C59U, the self-cleavage stood at 0.31.

On to U31G U74C, for which the self-cleavage was determined as 0.96.

In the case of C62A U76C, the self-cleavage was 0.17.

As for A57U C62U, the self-cleavage was 0.21.

As for A13G U74C, the self-cleavage amounted to 0.72.

As to U49C A65U, the self-cleavage was 0.26.

On to G42A G55U, for which the self-cleavage amounted to 0.08.

As for U25C A35G, the self-cleavage stood at 0.31.

Take A13G G70C: the self-cleavage was 0.45.

As to C29G U58C, the self-cleavage was 0.52.

With A15G U58C, the self-cleavage came out at 0.44.

On to U54G U60G, for which the self-cleavage was 0.42.

In the case of A5U U66A, the self-cleavage came to 0.46.

For C11G A45U, the self-cleavage stood at 0.23.

Take U48A U76A: the self-cleavage was 0.5.

Take G7C C37U: the self-cleavage is 0.24.

As to A64U A65G, the self-cleavage worked out at 0.25.

For G7C U80C, the self-cleavage is 0.27.

In the case of A2U U49A, the self-cleavage turned out to be 0.72.

Regarding G52A A75G, the self-cleavage worked out at 0.99.

With C40G U60A, the self-cleavage was determined as 0.11.

Consider A18G G19C, for which the self-cleavage is 0.2.

As for A2C U72C, the self-cleavage was 0.9.

Turning to C44U U51C, the self-cleavage was 0.1.

In the case of C14A C38G, the self-cleavage amounted to 0.19.

With C29U U67C, the self-cleavage was 0.23.

As to C29U U48C, the self-cleavage amounted to 0.25.

Consider U26C U54G, for which the self-cleavage was found to be 0.27.

Regarding C50A U67A, the self-cleavage is 0.38.

As to A45G U80A, the self-cleavage is 0.91.

With G46A A77G, the self-cleavage came to 0.27.

With U26C A75C, the self-cleavage came out at 0.38.

Regarding U26C A75G, the self-cleavage worked out at 0.38.

Turning to U1A A28U, the self-cleavage stood at 0.88.

G19A U43A: the self-cleavage amounted to 0.36.

G9A G22C: the self-cleavage was found to be 0.32.

For C50G A75C, the self-cleavage was 0.54.

For G42A U43C, the self-cleavage was determined as 0.29.

As to G19C U49A, the self-cleavage was determined as 0.36.

For A65G G73C, the self-cleavage stood at 0.74.

Regarding U43A A57U, the self-cleavage came to 1.11.

In the case of U25C C39U, the self-cleavage was 0.2.

Turning to A28G A57U, the self-cleavage is 0.24.

With A20U A75U, the self-cleavage was 0.28.

Take G9A U26A: the self-cleavage is 0.29.

As for C40U U69G, the self-cleavage was 0.57.

Turning to C38U U80A, the self-cleavage came to 0.96.

Regarding A47G G63C, the self-cleavage came to 0.93.

Turning to A57U C79G, the self-cleavage was found to be 1.16.

In the case of U25A C62U, the self-cleavage is 0.19.

As to U66C U72A, the self-cleavage is 0.39.

G6A A56U: the self-cleavage stood at 0.2.

On to U25G U67G, for which the self-cleavage stood at 0.19.

In the case of U25G U67A, the self-cleavage stood at 0.22.

With G9U A18G, the self-cleavage came out at 0.19.

For C11G U43A, the self-cleavage turned out to be 0.67.

Regarding A28U A56G, the self-cleavage is 0.53.

For U54G A56G, the self-cleavage was 0.46.

With U1A A3G, the self-cleavage is 1.1.

Turning to A28G C71U, the self-cleavage came to 0.15.

For the variant U43G U58C, the self-cleavage amounted to 0.14.

Take A3G C32U: the self-cleavage is 0.45.

Regarding A18G G46A, the self-cleavage stood at 0.35.

For U49C A75U, the self-cleavage stood at 0.62.

As to C14U U51A, the self-cleavage was 1.24.

On to U66A U72A, for which the self-cleavage was determined as 0.58.

As for A56G U69A, the self-cleavage was 0.5.

For A15G G30C, the self-cleavage is 0.27.

With A15G G30U, the self-cleavage worked out at 0.42.

For A13U A56U, the self-cleavage was 0.93.

For the variant A18U U80G, the self-cleavage is 0.51.

For the variant A57G A64U, the self-cleavage was found to be 0.36.

Regarding C14A U51C, the self-cleavage amounted to 1.04.

On to U26C A57C, for which the self-cleavage turned out to be 0.28.

Consider U41G U72C, for which the self-cleavage was 0.35.

For U1A A56G, the self-cleavage was determined as 0.71.

For the variant A5G A75C, the self-cleavage was determined as 0.57.

With A18G A35U, the self-cleavage came to 0.27.

For C27A C37U, the self-cleavage was determined as 0.21.

Take C17U A28G: the self-cleavage worked out at 0.36.

Take A15C A35G: the self-cleavage stood at 1.08.

For U51A U60C, the self-cleavage was 0.59.

For C11U U41C, the self-cleavage turned out to be 0.51.

Regarding U41A C71U, the self-cleavage amounted to 0.24.

U49A A64G: the self-cleavage is 0.51.

Consider A20C U31C, for which the self-cleavage came out at 0.14.

Consider U41C G70A, for which the self-cleavage was 0.62.

As to A13G C39G, the self-cleavage is 0.27.

Take A2U U66A: the self-cleavage was 0.52.

On to U49A C71G, for which the self-cleavage is 0.24.

As for A64C U69C, the self-cleavage amounted to 0.4.

Turning to A47U C68A, the self-cleavage is 0.25.

As for A35G U43G, the self-cleavage turned out to be 0.36.

Take A57C U60A: the self-cleavage turned out to be 0.14.

As for A2C, the self-cleavage was determined as 0.91.

Regarding A18U U31C, the self-cleavage came out at 0.26.

For A75G A77G, the self-cleavage came out at 0.57.

Take G6A G53C: the self-cleavage stood at 0.43.

Regarding U48C U69G, the self-cleavage came to 0.36.

Consider A13G A35U, for which the self-cleavage was found to be 0.48.

With U69A G73A, the self-cleavage was found to be 1.16.

Consider A20G G53A, for which the self-cleavage stood at 0.98.

Regarding G9A C27A, the self-cleavage is 0.04.

Consider C11G U51C, for which the self-cleavage turned out to be 0.41.

Turning to C12U A18G, the self-cleavage was 0.95.

On to C27A A35G, for which the self-cleavage came out at 0.52.

Regarding A28G U31G, the self-cleavage was 0.25.

On to C11U A15U, for which the self-cleavage was 0.35.

Turning to U69C U80A, the self-cleavage stood at 0.79.

Take U54A U72G: the self-cleavage was 0.87.

With U25C U76A, the self-cleavage worked out at 0.33.

On to U60C U69G, for which the self-cleavage stood at 0.39.

Regarding A45G G73U, the self-cleavage amounted to 1.29.

Regarding G8U A13G, the self-cleavage came to 0.28.

As to C23U U51C, the self-cleavage was 0.07.

Consider U25G U72C, for which the self-cleavage turned out to be 0.26.

Consider G42A U67C, for which the self-cleavage stood at 0.21.

U48A U58C: the self-cleavage is 0.29.

On to A5G U49A, for which the self-cleavage turned out to be 0.53.

For C39G U48A, the self-cleavage was 0.15.

Regarding C11U U78C, the self-cleavage was 0.33.

Regarding C59U U78A, the self-cleavage worked out at 1.17.

Take C14A G24C: the self-cleavage came out at 0.15.

For the variant A18U G73A, the self-cleavage worked out at 0.61.

For U31C A35U, the self-cleavage was determined as 0.32.

As for U60C G63A, the self-cleavage is 0.57.

On to U43C U49G, for which the self-cleavage came out at 0.26.
